B1: N-CAR PD1-PD1 (SEQ ID No 1999 with intracellular domain SEQ ID No 2005) (other)
chain: EVQLQQSGPELVKPGTSVRISCKTSGYTFTEYTIHWVKQSHGKSLEWIGNINPNNGGTTYNQKFEDKATLTVDKSSSTAYMELRSLTSEDSAVYYCAAGWNFDYWGQGTTVTVSSGGGGSGGGGSGGGGSDIVMTQSHKFMSTSVGDRVSIICKASQDVGTAVDWYQQKPGQSPKLLIYWASTRHTGVPDRFTGSGSGTDFTLTITNVQSEDLADYFCQQYNSYPLTFGAGTMLDLKRAAATERRAEVPTAHPSPSPRPAGQFQTLVVGVVGGLLGSLVLLVWVLAVICSRAARGTIGARRTGQPLKEDPSAVPVFSVDYGELDFQWREKTPEPPVPCVPEQTEYATIVFPSGMGTSSPARRGSADGPRSAQPLRPEDGHCSWPLCSRAARGTIGARRTGQPLKEDPSAVPVFSVDYGELDFQWREKTPEPPVPCVPEQTEYATIVFPSGMGTSSPARRGSADGPRSAQPLRPEDGHCSWPL
B2: N-CAR PD1-TIM3 (SEQ ID No 1999 with intracellular domain SEQ ID No 2006) (other)
chain: EVQLQQSGPELVKPGTSVRISCKTSGYTFTEYTIHWVKQSHGKSLEWIGNINPNNGGTTYNQKFEDKATLTVDKSSSTAYMELRSLTSEDSAVYYCAAGWNFDYWGQGTTVTVSSGGGGSGGGGSGGGGSDIVMTQSHKFMSTSVGDRVSIICKASQDVGTAVDWYQQKPGQSPKLLIYWASTRHTGVPDRFTGSGSGTDFTLTITNVQSEDLADYFCQQYNSYPLTFGAGTMLDLKRAAATERRAEVPTAHPSPSPRPAGQFQTLVVGVVGGLLGSLVLLVWVLAVICSRAARGTIGARRTGQPLKEDPSAVPVFSVDYGELDFQWREKTPEPPVPCVPEQTEYATIVFPSGMGTSSPARRGSADGPRSAQPLRPEDGHCSWPLFKWYSHSKEKIQNLSLISLANLPPSGLANAVAEGIRSEENIYTIEENVYEVEEPNEYYCYVSSRQQPSQPLGCRFAMP
B3: N-CAR CD300LF (SEQ ID No 1999 with intracellular domain SEQ ID No 2007) (other)
chain: EVQLQQSGPELVKPGTSVRISCKTSGYTFTEYTIHWVKQSHGKSLEWIGNINPNNGGTTYNQKFEDKATLTVDKSSSTAYMELRSLTSEDSAVYYCAAGWNFDYWGQGTTVTVSSGGGGSGGGGSGGGGSDIVMTQSHKFMSTSVGDRVSIICKASQDVGTAVDWYQQKPGQSPKLLIYWASTRHTGVPDRFTGSGSGTDFTLTITNVQSEDLADYFCQQYNSYPLTFGAGTMLDLKRAAATERRAEVPTAHPSPSPRPAGQFQTLVVGVVGGLLGSLVLLVWVLAVIWRMMKYQQKAAGMSPEQVLQPLEGDLCYADLTLQLAGTSPQKATTKLSSAQVDQVEVEYVTMASLPKEDISYASLTLGAEDQEPTYCNMGHLSSHLPGRGPEEPTEYSTISRP
B4: N-CAR LY9 (SEQ ID No 1999 with intracellular domain SEQ ID No 2008) (other)
chain: EVQLQQSGPELVKPGTSVRISCKTSGYTFTEYTIHWVKQSHGKSLEWIGNINPNNGGTTYNQKFEDKATLTVDKSSSTAYMELRSLTSEDSAVYYCAAGWNFDYWGQGTTVTVSSGGGGSGGGGSGGGGSDIVMTQSHKFMSTSVGDRVSIICKASQDVGTAVDWYQQKPGQSPKLLIYWASTRHTGVPDRFTGSGSGTDFTLTITNVQSEDLADYFCQQYNSYPLTFGAGTMLDLKRAAATERRAEVPTAHPSPSPRPAGQFQTLVVGVVGGLLGSLVLLVWVLAVIKRKGRCSVPAFCSSQAEAPADTPEPTAGHTLYSVLSQGYEKLDTPLRPARQQPTPTSDSSSDSNLTTEEDEDRPEVHKPISGRYEVFDQVTQEGAGHDPAPEGQADYDPVTPYVTEVESVVGENTMYAQVFNLQGKTPVSQKEESSATIYCSIRKPQVVPPPQQNDLEIPESPTYENFT
B5: N-CAR PECAM (SEQ ID No 1999 with intracellular domain SEQ ID No 2009) (other)
chain: EVQLQQSGPELVKPGTSVRISCKTSGYTFTEYTIHWVKQSHGKSLEWIGNINPNNGGTTYNQKFEDKATLTVDKSSSTAYMELRSLTSEDSAVYYCAAGWNFDYWGQGTTVTVSSGGGGSGGGGSGGGGSDIVMTQSHKFMSTSVGDRVSIICKASQDVGTAVDWYQQKPGQSPKLLIYWASTRHTGVPDRFTGSGSGTDFTLTITNVQSEDLADYFCQQYNSYPLTFGAGTMLDLKRAAATERRAEVPTAHPSPSPRPAGQFQTLVVGVVGGLLGSLVLLVWVLAVIKCYFLRKAKAKQMPVEMSRPAVPLLNSNNEKMSDPNMEANSHYGHNDDVRNHAMKPINDNKEPLNSDVQYTEVQVSSAESHKDLGKKDTETVYSEVRKAVPDAVESRYSRTEGSLDGT
B6: N-CAR SIGLEC9 (SEQ ID No 1999 with intracellular domain SEQ ID No 2010) (other)
chain: EVQLQQSGPELVKPGTSVRISCKTSGYTFTEYTIHWVKQSHGKSLEWIGNINPNNGGTTYNQKFEDKATLTVDKSSSTAYMELRSLTSEDSAVYYCAAGWNFDYWGQGTTVTVSSGGGGSGGGGSGGGGSDIVMTQSHKFMSTSVGDRVSIICKASQDVGTAVDWYQQKPGQSPKLLIYWASTRHTGVPDRFTGSGSGTDFTLTITNVQSEDLADYFCQQYNSYPLTFGAGTMLDLKRAAATERRAEVPTAHPSPSPRPAGQFQTLVVGVVGGLLGSLVLLVWVLAVIVRSCRKKSARPAAGVGDTGIEDANAVRGSASQGPLTEPWAEDSPPDQPPPASARSSVGEGELQYASLSFQMVKPWDSRGQEATDTEYSEIKIHR
B7: N-CAR SIRPA (SEQ ID No 1999 with intracellular domain SEQ ID No 2011) (other)
chain: EVQLQQSGPELVKPGTSVRISCKTSGYTFTEYTIHWVKQSHGKSLEWIGNINPNNGGTTYNQKFEDKATLTVDKSSSTAYMELRSLTSEDSAVYYCAAGWNFDYWGQGTTVTVSSGGGGSGGGGSGGGGSDIVMTQSHKFMSTSVGDRVSIICKASQDVGTAVDWYQQKPGQSPKLLIYWASTRHTGVPDRFTGSGSGTDFTLTITNVQSEDLADYFCQQYNSYPLTFGAGTMLDLKRAAATERRAEVPTAHPSPSPRPAGQFQTLVVGVVGGLLGSLVLLVWVLAVIRIRQKKAQGSTSSTRLHEPEKNAREITQDTNDITYADLNLPKGKKPAPQAAEPNNHTEYASIQTSPQPASEDTLTYADLDMVHLNRTPKQPAPKPEPSFSEYASVQVPRK
B8: N-CAR PD1-L2-ITSM (SEQ ID No 1999 with intracellular domain SEQ ID No 2012) (other)
chain: EVQLQQSGPELVKPGTSVRISCKTSGYTFTEYTIHWVKQSHGKSLEWIGNINPNNGGTTYNQKFEDKATLTVDKSSSTAYMELRSLTSEDSAVYYCAAGWNFDYWGQGTTVTVSSGGGGSGGGGSGGGGSDIVMTQSHKFMSTSVGDRVSIICKASQDVGTAVDWYQQKPGQSPKLLIYWASTRHTGVPDRFTGSGSGTDFTLTITNVQSEDLADYFCQQYNSYPLTFGAGTMLDLKRAAATERRAEVPTAHPSPSPRPAGQFQTLVVGVVGGLLGSLVLLVWVLAVICSRAARGTIGARRTGQPLKEDPSAVPVFSVDYGELDFQWREKTPEPPVPCVPEQTEYATIDFQWREKTPEPPVPCVPEQTEYATIVFPSGMGTSSPARRGSADGPRSAQPLRPEDGHCSWPL
B9: N-CAR PD1-L2-ITSM-L2-ITSM (SEQ ID No 1999 with intracellular domain SEQ ID No 2013) (other)
chain: EVQLQQSGPELVKPGTSVRISCKTSGYTFTEYTIHWVKQSHGKSLEWIGNINPNNGGTTYNQKFEDKATLTVDKSSSTAYMELRSLTSEDSAVYYCAAGWNFDYWGQGTTVTVSSGGGGSGGGGSGGGGSDIVMTQSHKFMSTSVGDRVSIICKASQDVGTAVDWYQQKPGQSPKLLIYWASTRHTGVPDRFTGSGSGTDFTLTITNVQSEDLADYFCQQYNSYPLTFGAGTMLDLKRAAATERRAEVPTAHPSPSPRPAGQFQTLVVGVVGGLLGSLVLLVWVLAVICSRAARGTIGARRTGQPLKEDPSAVPVFSVDYGELDFQWREKTPEPPVPCVPEQTEYATIDFQWREKTPEPPVPCVPEQTEYATIDFQWREKTPEPPVPCVPEQTEYATIVFPSGMGTSSPARRGSADGPRSAQPLRPEDGHCSWPL
B10: N-CAR PD1 (ITSM mut 1) (SEQ ID No 1999 with intracellular domain SEQ ID No 2014) (other)
chain: EVQLQQSGPELVKPGTSVRISCKTSGYTFTEYTIHWVKQSHGKSLEWIGNINPNNGGTTYNQKFEDKATLTVDKSSSTAYMELRSLTSEDSAVYYCAAGWNFDYWGQGTTVTVSSGGGGSGGGGSGGGGSDIVMTQSHKFMSTSVGDRVSIICKASQDVGTAVDWYQQKPGQSPKLLIYWASTRHTGVPDRFTGSGSGTDFTLTITNVQSEDLADYFCQQYNSYPLTFGAGTMLDLKRAAATERRAEVPTAHPSPSPRPAGQFQTLVVGVVGGLLGSLVLLVWVLAVICSRAARGTIGARRTGQPLKEDPSAVPVFSVDYGELDFQWREKTPEPPVPCVPEQTEYSEIVFPSGMGTSSPARRGSADGPRSAQPLRPEDGHCSWPL
B11: N-CAR PD1 (ITSM mut3) (SEQ ID No 1999 with intracellular domain SEQ ID No 2016) (other)
chain: EVQLQQSGPELVKPGTSVRISCKTSGYTFTEYTIHWVKQSHGKSLEWIGNINPNNGGTTYNQKFEDKATLTVDKSSSTAYMELRSLTSEDSAVYYCAAGWNFDYWGQGTTVTVSSGGGGSGGGGSGGGGSDIVMTQSHKFMSTSVGDRVSIICKASQDVGTAVDWYQQKPGQSPKLLIYWASTRHTGVPDRFTGSGSGTDFTLTITNVQSEDLADYFCQQYNSYPLTFGAGTMLDLKRAAATERRAEVPTAHPSPSPRPAGQFQTLVVGVVGGLLGSLVLLVWVLAVICSRAARGTIGARRTGQPLKEDPSAVPVFSVDYGELDFQWREKTPEPPVPCVPEQTEYASIVFPSGMGTSSPARRGSADGPRSAQPLRPEDGHCSWPL
B12: N-CAR PD1 (ITSM mut 2) (SEQ ID No 1999 with intracellular domain SEQ ID No 2015) (other)
chain: EVQLQQSGPELVKPGTSVRISCKTSGYTFTEYTIHWVKQSHGKSLEWIGNINPNNGGTTYNQKFEDKATLTVDKSSSTAYMELRSLTSEDSAVYYCAAGWNFDYWGQGTTVTVSSGGGGSGGGGSGGGGSDIVMTQSHKFMSTSVGDRVSIICKASQDVGTAVDWYQQKPGQSPKLLIYWASTRHTGVPDRFTGSGSGTDFTLTITNVQSEDLADYFCQQYNSYPLTFGAGTMLDLKRAAATERRAEVPTAHPSPSPRPAGQFQTLVVGVVGGLLGSLVLLVWVLAVICSRAARGTIGARRTGQPLKEDPSAVPVFSVDYGELDFQWREKTPEPPVPCVPEQTEYSEVVFPSGMGTSSPARRGSADGPRSAQPLRPEDGHCSWPL
B13: N-CAR PD1-KIR2DL2 (SEQ ID No 1999 with intracellular domain SEQ ID No 2017) (other)
chain: EVQLQQSGPELVKPGTSVRISCKTSGYTFTEYTIHWVKQSHGKSLEWIGNINPNNGGTTYNQKFEDKATLTVDKSSSTAYMELRSLTSEDSAVYYCAAGWNFDYWGQGTTVTVSSGGGGSGGGGSGGGGSDIVMTQSHKFMSTSVGDRVSIICKASQDVGTAVDWYQQKPGQSPKLLIYWASTRHTGVPDRFTGSGSGTDFTLTITNVQSEDLADYFCQQYNSYPLTFGAGTMLDLKRAAATERRAEVPTAHPSPSPRPAGQFQTLVVGVVGGLLGSLVLLVWVLAVICSRAARGTIGARRTGQPLKEDPSAVPVFSVDYGELDFQWREKTPEPPVPCVPEQTEYATIVFPSGMGTSSPARRGSADGPRSAQPLRPEDGHCSWPLHRWCSNKKNAAVMDQESAGNRTANSEDSDEQDPQEVTYTQLNHCVFTQRKITRPSQRPKTPPTDIIVYAELPNAESRSKVVSCP

Biological target: T1, biotinylated recombinant human PSMA-human IgG1 Fc fusion protein (human, UniProt Q04609 44-750, biotinylated (sites not given))
T1 construct: Staining reagent; not shown: human IgG1 Fc
Assay: flow cytometry, reporter Jurkat cells co-expressing P-CAR1 (FIGS. 1-4)

T1 sequence (Q04609 44-750 limits assumed): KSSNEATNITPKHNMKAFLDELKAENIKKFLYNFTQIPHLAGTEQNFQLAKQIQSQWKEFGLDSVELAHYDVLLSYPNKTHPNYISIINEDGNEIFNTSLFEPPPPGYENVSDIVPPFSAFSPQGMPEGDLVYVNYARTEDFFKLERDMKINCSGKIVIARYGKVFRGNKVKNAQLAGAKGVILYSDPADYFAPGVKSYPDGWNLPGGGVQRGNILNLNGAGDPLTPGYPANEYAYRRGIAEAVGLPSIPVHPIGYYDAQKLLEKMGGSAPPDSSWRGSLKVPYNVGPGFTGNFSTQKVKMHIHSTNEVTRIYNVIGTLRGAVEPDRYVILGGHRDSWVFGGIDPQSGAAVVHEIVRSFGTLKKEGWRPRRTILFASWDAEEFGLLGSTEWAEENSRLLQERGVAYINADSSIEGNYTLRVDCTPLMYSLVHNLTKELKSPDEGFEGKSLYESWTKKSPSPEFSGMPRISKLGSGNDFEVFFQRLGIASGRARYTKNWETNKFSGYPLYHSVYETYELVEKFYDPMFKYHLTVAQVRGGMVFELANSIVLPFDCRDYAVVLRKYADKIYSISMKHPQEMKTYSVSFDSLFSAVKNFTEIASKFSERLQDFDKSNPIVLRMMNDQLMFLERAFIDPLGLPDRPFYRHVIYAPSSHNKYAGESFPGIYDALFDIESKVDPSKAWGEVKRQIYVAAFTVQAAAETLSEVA

| Binder | binding result |
| --- | --- |
| B1 | binds |
| B2 | binds |
| B3 | binds |
| B4 | binds |
| B5 | binds |
| B6 | binds |
| B7 | binds |
| B8 | binds |
| B9 | binds |
| B10 | binds |
| B11 | binds |
| B12 | binds |
| B13 | binds |
